Assay results published in the supplement of paper PMC10567573.

B1: CLPTM1 (parent)
chain: LGCYAVYSLLYLEHKGWYSWVLSM
B2: RAB40A (parent)
chain: NWLGRPSKVLSLQDLCCRTIVSCT

Variants of: B1
Assay: protein stability index of a GFP-peptide fusion (GPS, HEK-293T) (PSI 1-6); higher = more stable
Conditions: c terminus: a fixed tail appended
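Further: lentivirally expressed fusions sorted by FACS into six bins by GFP to DsRed ratio, PSI derived from sequencing read proportions per bin multiplied by bin number.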

Protein stability index, by site and new letter:
C3: D 2.59; I 2.62; N 3.61; R 1.63; T 2.52; K 2.74; P 2.26; E 3.26; S 3.55; F 2.37; H 2.58; G 2.35; L 3.21; Y 3.21; W 2.24; M 3.15; V 3.36
L1: E 3.05; S 3.4; Q 4.62; Y 3.77; V 2.65; G 2.73; C 2.92; M 3.26; D 2.85; I 3.58; N 3.26; F 2.55; W 2.96; T 3.54; H 2.19; R 3.05
G2: D 3.19; F 2.72; R 3.1; L 3.57; Y 3.37; P 2.76; T 3.4; I 2.87; M 3.58; Q 3.29; V 2.32; W 2.07; E 3.26; S 1.47; N 3.83
Y4: A 4.36

Variants of: B2
Assay: as above
Conditions: c terminus: a fixed tail appended

Protein stability index, by site and new letter:
C16: V 2.19; E 1.9; Q 1.51; Y 1.44; K 2.25; T 2.06; N 1.61; D 2.2; L 2.02; H 1.58; R 1.75
V21: M 2.66; R 3.04; G 2.64; L 2.04; E 1.88; S 2.77; T 2.58; D 3.02; Y 2.08; N 2.8; W 2.46; P 2.89; I 2.31; C 2.41; F 2.43
I20: G 2.47; Y 2.1; R 2.54; M 2.83; L 2.74; V 2.14; K 2.62; F 1.89; E 2.04; Q 2.26; W 2.18; T 1.73; H 2.48; D 2.4
R5: T 2.42; H 2.25; L 2.06; M 2.85; V 2.52; A 2.46; S 2.69; C 2.76; P 3.14; Y 2.06; Q 2.55; K 2.42; N 2.56; F 2.27
L15: A 2.15; P 1.62; E 2.15; K 2.16; C 1.89; M 2.13; Q 2.42; D 2.02; T 1.92; I 2.31; W 2.1; G 1.74; S 1.96; H 1.99
L3: K 3.05; S 2.64; H 2.3; Q 2.85; N 2.46; G 2.69; A 2.53; D 2.62; I 2.36; V 2.26; F 2.28; M 2.2; W 2.11; E 2.75; T 2.95; Y 2.51
N1: K 1.97; G 3.03; D 2.12; H 2.2; P 2.35; S 2.36; F 2.16; Q 2.29; I 1.84; Y 1.83; V 2.15
C23: Y 2.35; I 2.33; E 2.8; T 2.66; F 2.33; S 2.95; P 2.68; Q 3.46; M 2.33; N 2.93
G4: M 2.34; I 2.13; N 2.27; D 2.57; R 2.42; E 2.77; W 2.09; Q 2.34; H 2.33; T 2.07; A 2.73; C 1.5; Y 2.35
Q13: E 2.41; N 1.8; S 2.67; P 1.68; A 2.86; W 2.82; L 2.44; T 2.51
C17: S 2.75; N 2.95; M 2.54; A 2.66; V 2.6; T 3.23; H 2.88; E 3.08; W 2.03; D 2.79; K 3.26
R18: N 2.5; P 1.61; I 1.68; E 2.49; Y 1.73; T 2.26; L 2.11; S 2.58; K 2.65; H 1.98; G 2; M 1.72
L10: W 1.93; S 2.57; N 2.22; A 2.52; Q 2.24; D 2.31; Y 2.43; H 2.07; I 2.41; P 2.62
T24: C 2.07; L 2.31; W 2.2; K 3.2; D 2.85; M 2.27; S 2.62; A 2.5; N 2.87
W2: I 3.01; Q 3.14; S 2.96; P 2.81; N 3.23; F 2.64; T 3.08; L 2.68; C 2.71; V 2.71; M 2.62; G 3.23; K 3.11
S11: K 2.67; R 2.2; C 1.66; Y 2.03; M 1.97; A 1.88; F 1.67; V 2.74; Q 2.11; G 1.54
S7: M 2.03; A 2.24; D 2.28; L 2.13; Y 1.92; E 2.12; N 1.95; T 2.41; W 1.82; G 2.15
D14: S 2.07; I 1.48; P 1.97; A 1.99; M 1.58; G 2.45; R 1.51; N 2.29; Y 2.04; E 2.54; H 2.13; W 1.84; K 1.9
K8: M 1.75; A 1.98; V 1.89; W 2.33; F 2.35; E 2.26; P 2.29
S22: I 1.88; C 2.59; F 2.47; W 2.04; Q 2.59; M 2.61; L 2.31; D 2.83; E 2.57; T 2.4; K 2.75
L12: K 2.15; I 2.27; C 1.79; N 1.46; E 1.8; G 3.06; H 2.31; P 1.48; W 2.25; Y 3.31; F 2.75; D 1.8; A 1.38; V 2.87
P6: Y 1.88; S 2.38; C 2.13; A 1.79; L 1.76; V 1.91; M 1.76; G 2.25; N 2.66; Q 2.06; T 2.14; E 2.55; K 2.06
T19: C 2.04; R 2.19; N 2.91; I 2.6; G 2.07; E 2.53; F 2.26; A 2.52; Y 2.23; W 1.97; P 1.86; Q 2.31; M 2.27
V9: T 2.45; H 2.21; A 2.31; D 2.28; Y 2.23; G 2.32; F 1.93; P 2.09; N 2.4; Q 2.2; I 2.36; S 2.05; R 1.85
